In this assay the target is HLA-A*02:01 (Homo sapiens, UniProt P04439, D140Y/D185E/D98H/E176V/E277Q/G131W/G231S/I119V/I121R/I166T/I218V/L300P/L318F/N151K/N90K/P208A/P217A/Q86G/Q94H/R138H/R169H/T345S). In words: MHC binding assay (UV-ligand exchange, beta2m ELISA, peptide exchange yield). Conditions: binding to HLA-A*02:01. The source says: Candidate peptides for T cell based therapies according to the present invention were further tested for their MHC binding capacity (affinity). The individual peptide-MHC complexes were produced by UV-ligand exchange, where a UV-sensitive peptide is cleaved upon UV-irradiation, and exchanged with the peptide of interest as analyzed. Only peptide candidates that can effectively bind and stabilize the peptide-receptive MHC molecules prevent dissociation of the MHC complexes. To determine the yield of the exchange reaction, an ELISA was performed based on the detection of the light chain ([…]) of stabilized MHC complexes. The assay was performed as generally described in Rodenko et al. (Rodenko et al., 2006).
96 well MAXISorp plates (NUNC) were coated over night with 2 ug/ml streptavidin in PBS at room temperature, washed 4× and blocked for 1 h at 37° C. in 2% BSA containing blocking buffer. Refolded HLA-A*02:01/MLA-001 monomers served as standards, covering the range of 15-500 ng/ml. Peptide-MHC monomers of the UV-exchange reaction were diluted 100 fold in blocking buffer. Samples were incubated for 1 h at 37° C., washed four times, incubated with 2 ug/ml HRP conjugated anti-β2m for 1 h at 37° C., washed again and detected with TMB solution that is stopped with […]. Absorption was measured at 450 nm. Candidate peptides that show a high exchange yield (preferably higher than 50%, most preferred higher than 75%) are generally preferred for a generation and production of antibodies or fragments thereof, and/or T cell receptors or fragments thereof, as they show sufficient avidity to the MHC molecules and prevent dissociation of the MHC complexes.
(In general: In an ELISA, binding on a coated surface is turned into a signal by an enzyme label.)
As for “134 (GVAGGSILKGV; listed as Homo sapiens) [compound 134]”, the “Peptide exchange (MHC class I binding score, peptide exchange yield)” value (shortened to “Peptide exchange”) is on record as ““++++” (≥75% = ++++)”.
The same measure for “183 (TLQEVVTGV; listed as Homo sapiens) [compound 183]”: ““+++” (≥50 = +++)”; for “45 (ALAELLHGA; listed as Homo sapiens) [compound 45]”: ““+++” (≥50 = +++)”; for “33 (ALWEKNTHL; listed as Homo sapiens) [compound 33]”: ““+++” (≥50 = +++)”.
The same measure for “66 (GLDDGPDFL; listed as Homo sapiens) [compound 66]”: ““++” (≥20% = ++)”.
The result for “108 (SLAELVPGVGGI; listed as Homo sapiens) [compound 108]” reads ““+++” (≥50 = +++)”; that for “82 (QLYEEPDTKL; listed as Homo sapiens) [compound 82]”, ““++” (≥20% = ++)”; that for “94 (KSMDIVLTV; listed as Homo sapiens) [compound 94]”, ““+++” (≥50 = +++)”.
Regarding “104 (ILLTIKDDTIYL; listed as Homo sapiens) [compound 104]”, the “Peptide exchange” value is listed as ““+++” (≥50 = +++)”.
The same measure for “138 (KQFEGTVEI; listed as Homo sapiens) [compound 138]”: ““+++” (≥50 = +++)”; for “107 (ALLGGGPYML; listed as Homo sapiens) [compound 107]”: ““+++” (≥50 = +++)”; for “152 (KLLAVIHEL; listed as Homo sapiens) [compound 152]”: ““++” (≥20% = ++)”.
As for “92 (WIDDTSAFV; listed as Homo sapiens) [compound 92]”, the “Peptide exchange” value was ““+++” (≥50 = +++)”.
The result for “70 (MISELEVRL; listed as Homo sapiens) [compound 70]” reads ““+++” (≥50 = +++)”.
The result for “191 (QLFSEIHNL; listed as Homo sapiens) [compound 191]” reads ““++++″ (≥75% = ++++)”; that for “63 (KLFSILSTV; listed as Homo sapiens) [compound 63]”, ““++” (≥20% = ++)”; that for “151 (SAQGSDVSLTACKV; listed as Homo sapiens) [compound 151]”, ““+++” (≥50 = +++)”.
Consider “89 (SLIEYEFRV; listed as Homo sapiens) [compound 89]”, for which the “Peptide exchange” value is on record as ““+++” (≥50 = +++)”.
The result for “79 (SLAADQLLKL; listed as Homo sapiens) [compound 79]” reads ““++” (≥20% = ++)”.
On to “171 (RLQETEGMVAV; listed as Homo sapiens) [compound 171]”, for which the “Peptide exchange” value is reported as ““++” (≥20% = ++)”.
The same measure for “86 (KVFPGKISV; listed as Homo sapiens) [compound 86]”: ““++” (≥20% = ++)”; for “41 (ILDDSFKLL; listed as Homo sapiens) [compound 41]”: ““++” (≥20% = ++)”.
The same measure for “131 (KLLDVVHPA; listed as Homo sapiens) [compound 131]”: ““++” (≥20% = ++)”.
The same measure for “34 (ILLEKSVSV; listed as Homo sapiens) [compound 34]”: ““+++” (≥50 = +++)”; for “35 (KLLDLTVRI; listed as Homo sapiens) [compound 35]”: ““+++” (≥50 = +++)”; for “72 (YLLDYPNNLL; listed as Homo sapiens) [compound 72]”: ““+++” (≥50 = +++)”.
On to “8 (ALMLQGVDLL; listed as Homo sapiens) [compound 8]”, for which the “Peptide exchange” value was ““+++” (≥50 = +++)”.
The same measure for “144 (LLNDRIWLA; listed as Homo sapiens) [compound 144]”: ““+++” (≥50 = +++)”.
Consider “30 (GLSSAYGGL; listed as Homo sapiens) [compound 30]”, for which the “Peptide exchange” value is listed as ““+” (≥10% = +)”.
The same measure for “69 (GMLNEAEGKAIKL; listed as Homo sapiens) [compound 69]”: ““++” (≥20% = ++)”; for “91 (TVDVATPSV; listed as Homo sapiens) [compound 91]”: ““+++” (≥50 = +++)”.
The result for “23 (FLDANGHFV; listed as Homo sapiens) [compound 23]” reads ““+++” (≥50 = +++)”.
The result for “68 (SILQFVHMV; listed as Homo sapiens) [compound 68]” reads ““+++” (≥50 = +++)”; that for “148 (RLLENMTEVV; listed as Homo sapiens) [compound 148]”, ““+++” (≥50 = +++)”; that for “116 (LVYQFVHPI; listed as Homo sapiens) [compound 116]”, ““++” (≥20% = ++)”.
As for “105 (YALDLSTFL; listed as Homo sapiens) [compound 105]”, the “Peptide exchange” value was ““+++” (≥50 = +++)”.
The same measure for “145 (LLLEVVKQV; listed as Homo sapiens) [compound 145]”: ““+++” (≥50 = +++)”; for “52 (ALDSSNSMQTI; listed as Homo sapiens) [compound 52]”: ““++” (≥20% = ++)”.
As for “102 (KILVSLIEV; listed as Homo sapiens) [compound 102]”, the “Peptide exchange” value is given as ““+++” (≥50 = +++)”.
On to “97 (ALWWGVVTV; listed as Homo sapiens) [compound 97]”, for which the “Peptide exchange” value is ““++” (≥20% = ++)”.
The same measure for “60 (VLDEDEPRFL; listed as Homo sapiens) [compound 60]”: ““++” (≥20% = ++)”; for “81 (ALLSQQTHL; listed as Homo sapiens) [compound 81]”: ““+++” (≥50 = +++)”; for “115 (SLFDVSHML; listed as Homo sapiens) [compound 115]”: ““+++” (≥50 = +++)”.
The result for “71 (RLWTEIPTAI; listed as Homo sapiens) [compound 71]” reads ““+++” (≥50 = +++)”.
The result for “77 (SLLKRDFGA; listed as Homo sapiens) [compound 77]” reads ““++” (≥20% = ++)”.
As for “170 (ALAGGITMV; listed as Homo sapiens) [compound 170]”, the “Peptide exchange” value is on record as ““+++” (≥50 = +++)”.
As for “6 (FLAELPGSLSL; listed as Homo sapiens) [compound 6]”, the “Peptide exchange” value was ““+++” (≥50 = +++)”.
Consider “177 (ALLQGAIESV; listed as Homo sapiens) [compound 177]”, for which the “Peptide exchange” value is listed as ““+++” (≥50 = +++)”.
The same measure for “130 (GLGGSQLIDTHL; listed as Homo sapiens) [compound 130]”: ““++” (≥20% = ++)”.
For the substance “61 (KLLKLFQGV; listed as Homo sapiens) [compound 61]”, the “Peptide exchange” value was ““+++” (≥50 = +++)”.
“114 (TAVGHALVL; listed as Homo sapiens) [compound 114]”: the “Peptide exchange” value is ““+” (≥10% = +)”.
The result for “185 (VLYTGVVRV; listed as Homo sapiens) [compound 185]” reads ““+++” (≥50 = +++)”; that for “93 (SLQELRLLL; listed as Homo sapiens) [compound 93]”, ““++++” (≥75% = ++++)”.
As to “101 (GLSEGHTFQV; listed as Homo sapiens) [compound 101]”, the “Peptide exchange” value is ““+++” (≥50 = +++)”.
The same measure for “36 (GLLESPSIFNFTA; listed as Homo sapiens) [compound 36]”: ““+++” (≥50 = +++)”; for “176 (RTLDKVLEV; listed as Homo sapiens) [compound 176]”: ““++” (≥20% = ++)”.

The values are drawn from US10513547B2, “Peptides and combination of peptides and scaffolds thereof for use in immunotherapy against colorectal carcinoma (CRC) and other cancers” (Immatics Biotechnologies GmbH, priority 2015, dated 2019).
